Data on four molecules can be found in US20170248602A1.

The target in assay [1] is T1, SNAP-25 peptide comprising amino acids 134-197 of SEQ ID NO:5 (human). Kind of assay: SPR (BIAcore 3000), peptide on CM5 chip, 1:1 fit. Background: SPR reads the build-up and loss of mass on a sensor chip optically.
In assay [2] the target is T1, SNAP-25 peptide comprising amino acids ….

Substitutions are numbered along the chain they refer to. Read-outs that look alike come from different tables or passages of the source.

B1: α-SNAP-25 mouse monoclonal antibody 1D3B8 (antibody, V domains shown)
VH: QVKLQESGAELVKPGASVKISCKASGYIFTDHALHWVRQKPEQGLEWIGYIFPGNGNIEYNEKFKGKATLTADKSSSTAYMQLNSLTSGDSAMYFCKKMDYWGQGTTVTVSS
VL: DVLMTQTPLSLPVSLGDQASISCRSSQSIVHSNGNTYLEWYLQKPGQSPKLLIYKVSNRFSGVPDRFSGSGSGTDFTLKISRVEAEDLGVYYCFQGSHVPPTFGAGTKLELKR
On to B1, for which, in assay [1], the Kd (in general, the concentration at which binding is half-saturated) was 50 pM; the koff – broadly, the rate constant with which the complex falls apart – is 5.78e-05 s⁻¹; the kon (in general, a measure of how fast the partners come together) came to 1.06e+06 M⁻¹ s⁻¹.

B2: α-SNAP-25 mouse monoclonal antibody 2C9B10 (antibody, V domains shown)
VH: B1 VH with I28T, A33S, L34I, R38K, E42G, I51L, I58F, Q82H, G89E, M93V
VL: DIQMTQSPASLSASVGETVTITCRTTENIYSYFVWSQQRQGKSPQLRVYNAKSLAEGVPSSFNVSVSGTQFSLKINSLQPEDFGTYHCQHHYGTPYTFGGGTRLEIRR
Take B2: in assay [1], the Kd came to 27100 pM, the koff turned out to be 0.000311 s⁻¹ and the kon worked out at 11500 M⁻¹ s⁻¹.

B3: α-SNAP-25 mouse monoclonal antibody 2E2A6 (antibody, V domains shown)
VH: QVQLQQSDAELVKPGASVKISCRASGYTFTDHSIHWVKQQPGQGLEWIGYIFPGNGNIEYNDKFKGKATLTADKSSGTAYMQLNSLTSEDSAVYFCKRMGYWGQGTSVTVSS
VL: DVLMTQTPLTLSVTIGQPASISCKSSQSLLYTNGKTYLTWLFQRPGQSPKRLIYLVSELDSGVPDRFSGSGSGTDFTLEITRVEAEDLGVYYCLQSAHFPFTFGSGTKLEIKR
In assay [2], B3 displayed a Kd of 405 pM, a koff of 6.74e-05 s⁻¹ and a kon of 166000 M⁻¹ s⁻¹. In assay [1], this molecule registered a dissociation constant Kd of 90 pM, an off-rate constant (koff) of 0.000153 s⁻¹ and a kon of 1.7e+06 M⁻¹ s⁻¹.

B4: α-SNAP-25 mouse monoclonal antibody 3C1A5 (antibody, V domains shown)
VH: QVKLQESGAELVKPGASVKISCKASGYTFTDHSIHWVKQKPGQGLEWIGYLFPGNGNFEYNEKFKGKATLTADKSSSTVYMYLNSLTSEDSAVYFCKRMGYWGQGTTVTVSS
VL: B3 VL with L3V, Y31N, F42I, K50Q, E58K, E79K, T81S, A97S
In assay [1], B4 registered a Kd of 1330 pM, a koff of 0.000288 s⁻¹ and an on-rate (kon) of 217000 M⁻¹ s⁻¹.
